Laboratory results taken from patent US20130157929A1, “GLUCAGON ANALOGUES” (ZEALAND PHARMA A/S, published 2013).
Starred links: 1 amine or outer side, 2 acyl side, 3 side chain; linkers in the order of their positions; H or OH if unused. Non-standard residues stand in square brackets, D forms with d. Groups on a side chain read outwards from the residue. *: point of attachment. γGlu = O=C(O)[C@H](CCC(=O)[*:2])N[*:1]; Palmitoyl = CCCCCCCCCCCCCCCC(=O)*; Aib = CC(C)(N)C(=O)O

Legend:
[1] = biological target: human glucagon-like peptide 1 receptor (GLP-1R) (human, UniProt P43220); experiment: cell-based or functional assay
[2] = biological target: human glucagon receptor (glucagon-R) (human, UniProt P47871); experiment: cell-based or functional assay

B1: Compound 9 (peptide)
peptide: H-HSQ[Aib]TFTSDYSKYLDSK([γGlu-Palmitoyl])AAHDFVEWLLSA-NH2
SMILES: CCCCCCCCCCCCCCCC(=O)N[C@@H](CCC(=O)NCCCC[C@H](NC(=O)[C@H](CO)NC(=O)[C@H](CC(=O)O)NC(=O)[C@H](CC(C)C)NC(=O)[C@H](Cc1ccc(O)cc1)NC(=O)[C@H](CCCCN)NC(=O)[C@H](CO)NC(=O)[C@H](Cc1ccc(O)cc1)NC(=O)[C@H](CC(=O)O)NC(=O)[C@H](CO)NC(=O)[C@@H](NC(=O)[C@H](Cc1ccccc1)NC(=O)[C@@H](NC(=O)C(C)(C)NC(=O)[C@H](CCC(N)=O)NC(=O)[C@H](CO)NC(=O)[C@@H](N)Cc1c[nH]cn1)[C@@H](C)O)[C@@H](C)O)C(=O)N[C@@H](C)C(=O)N[C@@H](C)C(=O)N[C@@H](Cc1c[nH]cn1)C(=O)N[C@@H](CC(=O)O)C(=O)N[C@@H](Cc1ccccc1)C(=O)N[C@H](C(=O)N[C@@H](CCC(=O)O)C(=O)N[C@@H](Cc1c[nH]c2ccccc12)C(=O)N[C@@H](CC(C)C)C(=O)N[C@@H](CC(C)C)C(=O)N[C@@H](CO)C(=O)N[C@@H](C)C(N)=O)C(C)C)C(=O)O
Question: How did the “EC50 (nM) GLP-1R, cAMP formation” value [1] turn out when B1 was run?
Answer: 16 nM

Question: What about the “EC50 (nM) GluR, cAMP formation” value [2] of the same binder?
Answer: 30 nM

B2: Compound 12 (peptide)
peptide: H-H[Aib]QFTFTSDYSKYLDSK([γGlu-Palmitoyl])AAHDFVEWLLSA-NH2
SMILES: CCCCCCCCCCCCCCCC(=O)N[C@@H](CCC(=O)NCCCC[C@H](NC(=O)[C@H](CO)NC(=O)[C@H](CC(=O)O)NC(=O)[C@H](CC(C)C)NC(=O)[C@H](Cc1ccc(O)cc1)NC(=O)[C@H](CCCCN)NC(=O)[C@H](CO)NC(=O)[C@H](Cc1ccc(O)cc1)NC(=O)[C@H](CC(=O)O)NC(=O)[C@H](CO)NC(=O)[C@@H](NC(=O)[C@H](Cc1ccccc1)NC(=O)[C@@H](NC(=O)[C@H](Cc1ccccc1)NC(=O)[C@H](CCC(N)=O)NC(=O)C(C)(C)NC(=O)[C@@H](N)Cc1c[nH]cn1)[C@@H](C)O)[C@@H](C)O)C(=O)N[C@@H](C)C(=O)N[C@@H](C)C(=O)N[C@@H](Cc1c[nH]cn1)C(=O)N[C@@H](CC(=O)O)C(=O)N[C@@H](Cc1ccccc1)C(=O)N[C@H](C(=O)N[C@@H](CCC(=O)O)C(=O)N[C@@H](Cc1c[nH]c2ccccc12)C(=O)N[C@@H](CC(C)C)C(=O)N[C@@H](CC(C)C)C(=O)N[C@@H](CO)C(=O)N[C@@H](C)C(N)=O)C(C)C)C(=O)O
Question: With B2 as the binder, how does the “EC50 (nM) GLP-1R, cAMP formation” value [1] read?
Answer: 12 nM

Question: And the “EC50 (nM) GluR, cAMP formation” value [2]?
Answer: 25 nM

B3: Compound 5 (peptide)
peptide: H-H[Aib]HGTFTSDYSKYLDSK([γGlu-Palmitoyl])AAHEFVEWLLEA-NH2
SMILES: CCCCCCCCCCCCCCCC(=O)N[C@@H](CCC(=O)NCCCC[C@H](NC(=O)[C@H](CO)NC(=O)[C@H](CC(=O)O)NC(=O)[C@H](CC(C)C)NC(=O)[C@H](Cc1ccc(O)cc1)NC(=O)[C@H](CCCCN)NC(=O)[C@H](CO)NC(=O)[C@H](Cc1ccc(O)cc1)NC(=O)[C@H](CC(=O)O)NC(=O)[C@H](CO)NC(=O)[C@@H](NC(=O)[C@H](Cc1ccccc1)NC(=O)[C@@H](NC(=O)CNC(=O)[C@H](Cc1c[nH]cn1)NC(=O)C(C)(C)NC(=O)[C@@H](N)Cc1c[nH]cn1)[C@@H](C)O)[C@@H](C)O)C(=O)N[C@@H](C)C(=O)N[C@@H](C)C(=O)N[C@@H](Cc1c[nH]cn1)C(=O)N[C@@H](CCC(=O)O)C(=O)N[C@@H](Cc1ccccc1)C(=O)N[C@H](C(=O)N[C@@H](CCC(=O)O)C(=O)N[C@@H](Cc1c[nH]c2ccccc12)C(=O)N[C@@H](CC(C)C)C(=O)N[C@@H](CC(C)C)C(=O)N[C@@H](CCC(=O)O)C(=O)N[C@@H](C)C(N)=O)C(C)C)C(=O)O
Question: With B3 as the binder, how does the “EC50 (nM) GLP-1R, cAMP formation” value [1] read?
Answer: 0.16 nM

Question: And the “EC50 (nM) GluR, cAMP formation” value [2]?
Answer: 0.15 nM

B4: Compound 4 (peptide)
peptide: H-H[Aib]PGTFTSDYSKYLDSK([γGlu-Palmitoyl])AAHDFVEWLLSA-NH2
SMILES: CCCCCCCCCCCCCCCC(=O)N[C@@H](CCC(=O)NCCCC[C@H](NC(=O)[C@H](CO)NC(=O)[C@H](CC(=O)O)NC(=O)[C@H](CC(C)C)NC(=O)[C@H](Cc1ccc(O)cc1)NC(=O)[C@H](CCCCN)NC(=O)[C@H](CO)NC(=O)[C@H](Cc1ccc(O)cc1)NC(=O)[C@H](CC(=O)O)NC(=O)[C@H](CO)NC(=O)[C@@H](NC(=O)[C@H](Cc1ccccc1)NC(=O)[C@@H](NC(=O)CNC(=O)[C@@H]1CCCN1C(=O)C(C)(C)NC(=O)[C@@H](N)Cc1c[nH]cn1)[C@@H](C)O)[C@@H](C)O)C(=O)N[C@@H](C)C(=O)N[C@@H](C)C(=O)N[C@@H](Cc1c[nH]cn1)C(=O)N[C@@H](CC(=O)O)C(=O)N[C@@H](Cc1ccccc1)C(=O)N[C@H](C(=O)N[C@@H](CCC(=O)O)C(=O)N[C@@H](Cc1c[nH]c2ccccc12)C(=O)N[C@@H](CC(C)C)C(=O)N[C@@H](CC(C)C)C(=O)N[C@@H](CO)C(=O)N[C@@H](C)C(N)=O)C(C)C)C(=O)O
Question: Which “EC50 (nM) GLP-1R, cAMP formation” value [1] does the source give for B4 here?
Answer: 0.1 nM

Question: And the “EC50 (nM) GluR, cAMP formation” value [2]?
Answer: 0.48 nM

B5: Compound 11 (peptide)
peptide: H-H[Aib]Q[Aib]TFTSDYSKYLDSK([γGlu-Palmitoyl])AAHDFVEWLLSA-NH2
SMILES: CCCCCCCCCCCCCCCC(=O)N[C@@H](CCC(=O)NCCCC[C@H](NC(=O)[C@H](CO)NC(=O)[C@H](CC(=O)O)NC(=O)[C@H](CC(C)C)NC(=O)[C@H](Cc1ccc(O)cc1)NC(=O)[C@H](CCCCN)NC(=O)[C@H](CO)NC(=O)[C@H](Cc1ccc(O)cc1)NC(=O)[C@H](CC(=O)O)NC(=O)[C@H](CO)NC(=O)[C@@H](NC(=O)[C@H](Cc1ccccc1)NC(=O)[C@@H](NC(=O)C(C)(C)NC(=O)[C@H](CCC(N)=O)NC(=O)C(C)(C)NC(=O)[C@@H](N)Cc1c[nH]cn1)[C@@H](C)O)[C@@H](C)O)C(=O)N[C@@H](C)C(=O)N[C@@H](C)C(=O)N[C@@H](Cc1c[nH]cn1)C(=O)N[C@@H](CC(=O)O)C(=O)N[C@@H](Cc1ccccc1)C(=O)N[C@H](C(=O)N[C@@H](CCC(=O)O)C(=O)N[C@@H](Cc1c[nH]c2ccccc12)C(=O)N[C@@H](CC(C)C)C(=O)N[C@@H](CC(C)C)C(=O)N[C@@H](CO)C(=O)N[C@@H](C)C(N)=O)C(C)C)C(=O)O
Question: Which “EC50 (nM) GLP-1R, cAMP formation” value [1] does the source give for B5 here?
Answer: 22 nM

Question: And the “EC50 (nM) GluR, cAMP formation” value [2]?
Answer: 5.1 nM

B6: Compound 8 (peptide)
peptide: H-H[Aib]QATFTSDYSKYLDSK([γGlu-Palmitoyl])AAHDFVEWLLSA-NH2
SMILES: CCCCCCCCCCCCCCCC(=O)N[C@@H](CCC(=O)NCCCC[C@H](NC(=O)[C@H](CO)NC(=O)[C@H](CC(=O)O)NC(=O)[C@H](CC(C)C)NC(=O)[C@H](Cc1ccc(O)cc1)NC(=O)[C@H](CCCCN)NC(=O)[C@H](CO)NC(=O)[C@H](Cc1ccc(O)cc1)NC(=O)[C@H](CC(=O)O)NC(=O)[C@H](CO)NC(=O)[C@@H](NC(=O)[C@H](Cc1ccccc1)NC(=O)[C@@H](NC(=O)[C@H](C)NC(=O)[C@H](CCC(N)=O)NC(=O)C(C)(C)NC(=O)[C@@H](N)Cc1c[nH]cn1)[C@@H](C)O)[C@@H](C)O)C(=O)N[C@@H](C)C(=O)N[C@@H](C)C(=O)N[C@@H](Cc1c[nH]cn1)C(=O)N[C@@H](CC(=O)O)C(=O)N[C@@H](Cc1ccccc1)C(=O)N[C@H](C(=O)N[C@@H](CCC(=O)O)C(=O)N[C@@H](Cc1c[nH]c2ccccc12)C(=O)N[C@@H](CC(C)C)C(=O)N[C@@H](CC(C)C)C(=O)N[C@@H](CO)C(=O)N[C@@H](C)C(N)=O)C(C)C)C(=O)O
Question: For B6, which “EC50 (nM) GLP-1R, cAMP formation” value [1] is on record?
Answer: 8.2 nM

Question: What about the “EC50 (nM) GluR, cAMP formation” value [2] of the same binder?
Answer: 3 nM

Question: And the “EC50 (nM) GluR, cAMP formation, earlier determination” value [2]?
Answer: 23 nM

B7: Compound 7 (peptide)
peptide: H-H[Aib]EGTFTSDYSKYLDSK([γGlu-Palmitoyl])AAHDFVEWLLSA-NH2
SMILES: CCCCCCCCCCCCCCCC(=O)N[C@@H](CCC(=O)NCCCC[C@H](NC(=O)[C@H](CO)NC(=O)[C@H](CC(=O)O)NC(=O)[C@H](CC(C)C)NC(=O)[C@H](Cc1ccc(O)cc1)NC(=O)[C@H](CCCCN)NC(=O)[C@H](CO)NC(=O)[C@H](Cc1ccc(O)cc1)NC(=O)[C@H](CC(=O)O)NC(=O)[C@H](CO)NC(=O)[C@@H](NC(=O)[C@H](Cc1ccccc1)NC(=O)[C@@H](NC(=O)CNC(=O)[C@H](CCC(=O)O)NC(=O)C(C)(C)NC(=O)[C@@H](N)Cc1c[nH]cn1)[C@@H](C)O)[C@@H](C)O)C(=O)N[C@@H](C)C(=O)N[C@@H](C)C(=O)N[C@@H](Cc1c[nH]cn1)C(=O)N[C@@H](CC(=O)O)C(=O)N[C@@H](Cc1ccccc1)C(=O)N[C@H](C(=O)N[C@@H](CCC(=O)O)C(=O)N[C@@H](Cc1c[nH]c2ccccc12)C(=O)N[C@@H](CC(C)C)C(=O)N[C@@H](CC(C)C)C(=O)N[C@@H](CO)C(=O)N[C@@H](C)C(N)=O)C(C)C)C(=O)O
Question: How did the “EC50 (nM) GLP-1R, cAMP formation” value [1] turn out when B7 was run?
Answer: 0.01 nM

Question: And the “EC50 (nM) GluR, cAMP formation” value [2]?
Answer: 26 nM

B8: Compound 10 (peptide)
peptide: H-H[Aib]QETFTSDYSKYLDSK([γGlu-Palmitoyl])AAHDFVEWLLSA-NH2
SMILES: CCCCCCCCCCCCCCCC(=O)N[C@@H](CCC(=O)NCCCC[C@H](NC(=O)[C@H](CO)NC(=O)[C@H](CC(=O)O)NC(=O)[C@H](CC(C)C)NC(=O)[C@H](Cc1ccc(O)cc1)NC(=O)[C@H](CCCCN)NC(=O)[C@H](CO)NC(=O)[C@H](Cc1ccc(O)cc1)NC(=O)[C@H](CC(=O)O)NC(=O)[C@H](CO)NC(=O)[C@@H](NC(=O)[C@H](Cc1ccccc1)NC(=O)[C@@H](NC(=O)[C@H](CCC(=O)O)NC(=O)[C@H](CCC(N)=O)NC(=O)C(C)(C)NC(=O)[C@@H](N)Cc1c[nH]cn1)[C@@H](C)O)[C@@H](C)O)C(=O)N[C@@H](C)C(=O)N[C@@H](C)C(=O)N[C@@H](Cc1c[nH]cn1)C(=O)N[C@@H](CC(=O)O)C(=O)N[C@@H](Cc1ccccc1)C(=O)N[C@H](C(=O)N[C@@H](CCC(=O)O)C(=O)N[C@@H](Cc1c[nH]c2ccccc12)C(=O)N[C@@H](CC(C)C)C(=O)N[C@@H](CC(C)C)C(=O)N[C@@H](CO)C(=O)N[C@@H](C)C(N)=O)C(C)C)C(=O)O
Question: For B8, which “EC50 (nM) GLP-1R, cAMP formation” value [1] is on record?
Answer: 20 nM

Question: What about the “EC50 (nM) GluR, cAMP formation” value [2] of the same binder?
Answer: 15 nM

B9: human GLP-1 (ligand)
peptide: RSLQDTEEKSRSFSASQADPLSDPDQMNEDKRHSQGTFTSDYSKYLDSRRAQDFVQWLMNTKRNRNNIAKRHDEFERHAEGTFTSDVSSYLEGQAAKEFIAWLVKGRGRRDFPEEVAIVEELGRRHADGSFSDEMNTILDNLAARDFINWLIQTKITDRK
Question: B9 was tested. Which “EC50 (nM) GluR, cAMP formation” value [2] did it give?
Answer: 100000 nM
